In article doi:10.1101/465930:

Target: FGFR1 extracellular domain (UniProt P11362)
Assay: optical biosensor

UniProt P11362, sequence (P11362 22-376): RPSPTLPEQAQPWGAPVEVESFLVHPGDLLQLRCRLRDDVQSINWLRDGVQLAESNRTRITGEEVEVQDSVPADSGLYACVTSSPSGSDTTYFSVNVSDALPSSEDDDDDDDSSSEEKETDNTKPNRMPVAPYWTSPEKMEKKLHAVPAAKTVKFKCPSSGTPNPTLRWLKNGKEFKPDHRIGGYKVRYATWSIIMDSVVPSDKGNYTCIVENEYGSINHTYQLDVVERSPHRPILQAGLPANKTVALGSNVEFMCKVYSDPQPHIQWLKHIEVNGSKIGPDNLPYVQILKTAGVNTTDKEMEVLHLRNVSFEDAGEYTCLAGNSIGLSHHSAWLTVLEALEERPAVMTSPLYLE

Kd: 106 nM
Substance: Ncad-Fc (from UniProt P19022 160-724) (Fc fusion)
